Holding throughout (experiment): high-throughput RNA pulldown from lysate on Ni-NTA beads; HRP: 50 mM Tris pH 8, 150 mM NaCl, 1 mM beta-mercaptoethanol, 50 ug/ml BSA, 3 ug/ml yeast RNA, 0.5% heparin; ITC and FP: Tris pH 8, 200 mM KCl, 5% glycerol; MST: 50 mM Tris pH 8, 200 mM NaCl, 1 mM DTT, BSA, heparin, 0.05% Tween 20
What all share (details): tags: N-terminal His-eGFP

For data set [1], the target named is T1, GFP-9S library array, motif 4 ND N98T;D124K (synthetic construct, N98T;D124K).
T1 chain: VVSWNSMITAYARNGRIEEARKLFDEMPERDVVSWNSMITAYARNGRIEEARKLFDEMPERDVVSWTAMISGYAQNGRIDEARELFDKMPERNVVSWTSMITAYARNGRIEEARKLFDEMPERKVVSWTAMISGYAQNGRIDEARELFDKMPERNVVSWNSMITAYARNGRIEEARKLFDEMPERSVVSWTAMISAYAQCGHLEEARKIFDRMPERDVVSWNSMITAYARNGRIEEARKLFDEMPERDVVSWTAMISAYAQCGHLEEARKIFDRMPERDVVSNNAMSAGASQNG

In data set [2] the target is T2, GFP-9S library array, motif 4 ND N98M;D124S (synthetic construct, N98M;D124S).
T2 chain: T1 chain with T98M, K124S

Data set [3] deals with T3, GFP-9S library array, motif 4 ND N98D;D124Q (synthetic construct, N98D;D124Q).
T3 chain: T1 chain with T98D, K124Q

Data set [4] addresses T4, GFP-9S library array, motif 4 ND D124H (synthetic construct, D124H).
T4 chain: T1 chain with T98N, K124H

The target in data set [5] is T5, GFP-9S library array, motif 4 ND N98S;D124I (synthetic construct, N98S;D124I).
T5 chain: T1 chain with T98S, K124I

What is called Kd is a measure of binding affinity in units of concentration. A high value points to a looser complex.

Numbering of substitutions follows the chain as printed.

As to AUUAUACGUGA (ssRNA) [IR-rpoA-U], the Kd was 81.9 nM in data set [1] (label: 5' IRDye 800CW); 48.4 nM in data set [2] (label: 5' IRDye 800CW); 803 nM in data set [3] (label: 5' IRDye 800CW); 40.7 nM in data set [4] (label: 5' IRDye 800CW); 152 nM in data set [5] (label: 5' IRDye 800CW).
In the same order, the values of AUUAAACGUGA (ssRNA) [IR-rpoA-A] are 53.4 nM, 65.9 nM, 973 nM, 285 nM and 113 nM.
Regarding AUUACACGUGA (ssRNA) [Cy5-rpoA], the Kd in data set [1] (label: 5' Cy5) was 131 nM; in data set [2] (label: 5' Cy5), 50.4 nM; in data set [3] (label: 5' Cy5) it was 369 nM; in data set [4] (label: 5' Cy5), 166 nM; in data set [5] (label: 5' Cy5), 74.7 nM.
Regarding AUUAGACGUGA (ssRNA) [Cy5-rpoA-G], the Kd in data set [1] (label: 5' Cy5) was determined as 131 nM; in data set [2] (label: 5' Cy5) it was 73.1 nM; in data set [3] (label: 5' Cy5) it was 270 nM; in data set [4] (label: 5' Cy5), 287 nM; in data set [5] (label: 5' Cy5), 71.4 nM.

(Values after publication PMC8809517, “Cofactor-independent RNA editing by a synthetic S-type PPR protein”.)
